Source: patent publication US20090281028A1
Where two headings read alike, the source gives them in different places. Ends that are not written are not given here.

Legend:
Assay in all cases: cell-based or functional assay
[1] = biological target: human Kv1.3 voltage-gated potassium channel (human) (UniProt P22001)
[2] = biological target: human Kv1.1 voltage-gated potassium channel (human) (UniProt Q09470)
[3] = biological target: human Kv1.1 channel (human) (UniProt Q09470)
[4] = biological target: human Kv1.3 channel (human) (UniProt P22001)
[5] = biological target: human Kv1.3 channel (human) (UniProt P22001); remark: listed apart in the source

human Kv1.3 channel (human), sequence (P22001 whole entry): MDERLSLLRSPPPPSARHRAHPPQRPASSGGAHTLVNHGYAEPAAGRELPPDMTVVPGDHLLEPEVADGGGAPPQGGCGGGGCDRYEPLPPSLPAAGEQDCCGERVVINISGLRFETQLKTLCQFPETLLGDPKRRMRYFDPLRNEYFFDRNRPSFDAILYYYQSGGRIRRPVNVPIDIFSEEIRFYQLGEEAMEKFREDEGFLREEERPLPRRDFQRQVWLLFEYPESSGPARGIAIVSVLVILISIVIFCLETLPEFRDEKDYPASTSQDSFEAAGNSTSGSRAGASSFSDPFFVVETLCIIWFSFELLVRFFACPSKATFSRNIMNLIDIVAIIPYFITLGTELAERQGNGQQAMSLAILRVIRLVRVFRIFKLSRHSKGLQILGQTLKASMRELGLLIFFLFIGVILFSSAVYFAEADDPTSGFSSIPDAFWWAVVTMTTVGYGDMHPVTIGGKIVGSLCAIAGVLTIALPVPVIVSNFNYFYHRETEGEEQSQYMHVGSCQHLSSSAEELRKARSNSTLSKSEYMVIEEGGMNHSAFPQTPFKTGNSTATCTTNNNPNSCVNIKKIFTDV
human Kv1.3 voltage-gated potassium channel (human), sequence (P22001 whole entry): as above
human Kv1.1 channel (human), sequence (Q09470 whole entry): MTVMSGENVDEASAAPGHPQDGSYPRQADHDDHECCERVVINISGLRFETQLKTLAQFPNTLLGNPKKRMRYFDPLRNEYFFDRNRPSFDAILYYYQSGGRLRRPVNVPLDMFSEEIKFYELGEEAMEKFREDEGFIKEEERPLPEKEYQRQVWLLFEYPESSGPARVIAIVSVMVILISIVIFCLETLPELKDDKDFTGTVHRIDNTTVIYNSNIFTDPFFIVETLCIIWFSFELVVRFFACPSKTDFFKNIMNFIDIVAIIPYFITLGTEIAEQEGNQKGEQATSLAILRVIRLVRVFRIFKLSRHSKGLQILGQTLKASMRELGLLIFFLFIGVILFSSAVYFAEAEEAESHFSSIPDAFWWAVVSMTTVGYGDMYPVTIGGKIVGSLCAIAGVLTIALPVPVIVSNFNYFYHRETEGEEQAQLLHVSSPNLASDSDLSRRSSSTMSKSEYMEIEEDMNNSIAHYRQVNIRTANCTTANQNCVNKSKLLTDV
human Kv1.1 voltage-gated potassium channel (human), sequence (Q09470 whole entry): as above

20k PEG-ShK (peptide) showed a WB/IFNg (IC50, nM); human whole blood [1] of 0.065 nM and a WB/IL-2 (IC50, nM); human whole blood [1] of 0.046 nM.

GGGGS-Osk1 (peptide) showed a WB/IFNg (IC50, nM); human whole blood [1] of 2.2 nM and a WB/IL-2 (IC50, nM); human whole blood [1] of 1.36 nM.

Molecule 20k PEG-OSK1[Ala29, 1Nal34] (peptide) has a WB/IFNg (IC50, nM); human whole blood [1] of 0.081 nM and a WB/IL-2 (IC50, nM); human whole blood [1] of 0.049 nM.

Work on “OSK1 (wild-type), toxin peptide of Orthochirus scrobiculosus scorpion venom” yielded a Kv1.3 (IC50, pM); whole cell patch clamp ePhys [1] of 39 pM, a Kv1.3 Selectivity (=Kv1.1/Kv.3 IC50) [1] of 5 fold and a Kv1.1 (IC50, pM); whole cell patch clamp ePhys [2] of 202 pM.

In the case of OSK1-K16, D20 (peptide), the WB/IFNg (IC50, nM); human whole blood [1] is reported as 1.32 nM and the WB/IL-2 (IC50, nM); human whole blood [1] is reported as 1.58 nM.

Work on Synthetic OSK1 (peptide) yielded a hKv1.1: IC50 [pM], block of current, whole cell patch clamp [3] of 160 pM, a hKv1.3: IC50 [pM], block of current, whole cell patch clamp [4] of 39 pM and a selectivity ratio hKv1.1/hKv1.3 (IC50) [4] of 4 fold.

For Fc-L10-OSK1 (Fc fusion), the hKv1.1: IC50 [pM], block of current, whole cell patch clamp [3] was 41600 pM.

For “E. coli-derived Shk[1-35]-L-Fc (Fc fusion)”, the Kv1.3 IC50 by IWQ (nM), IonWorks planar patch clamp, CHO/Kv1.3 cells [4] was 2.4 nM.

“E. coli-derived Fc-L-ShK[2-35] (Fc fusion)” showed a Kv1.3 IC50 by IWQ (nM), IonWorks planar patch clamp, CHO/Kv1.3 cells [4] of 2.8 nM and a Kv1.3 IC50 by WCVC (nM), whole cell patch clamp, HEK293/Kv1.3 cells [4] of 1.3 nM.

“Fc-L5-ShK[2-35] (CHO-derived, bivalent dimeric) (Fc fusion)” was tested, and the IC50 of block of the outward potassium current, whole cell patch clamp [4] was 100 pM.

“Fc-L10-OSK1 (stably expressed in CHO cells) (Fc fusion)” gave a fold loss of potency (IC50 of Kv1.3 current block) against synthetic OSK1 [4] of 5 fold.

Molecule E. coli-derived Fc-L-OSK1 (Fc fusion) has a Kv1.3 IC50 by WCVC (nM), whole cell patch clamp, HEK293/Kv1.3 cells [4] of 3.2 nM.

In the case of “Fc-L25-ShK[2-35] (CHO-derived, bivalent dimeric) (Fc fusion)”, the IC50 of inhibition of human Kv1.3, whole cell patch clamp [4] is reported as 150 pM.

“PEG-OSK1 (N-terminally 20 kDa PEGylated synthetic OSK1) (peptide)” showed a peak IC50 of block of the outward potassium current, whole cell patch clamp [4] of 1.28 nM.

In the case of “Fc-L10-ShK[2-35] (CHO-derived, bivalent dimeric) (Fc fusion)”, the IC50 of block of the outward potassium current, whole cell patch clamp [4] is reported as 115 pM.

In the case of “E. coli-derived Fc-L-ShK[1-35] (Fc fusion)”, the Kv1.3 IC50 by WCVC (nM), whole cell patch clamp, HEK293/Kv1.3 cells [4] is reported as 1.4 nM.

“E. coli-derived ShK[2-35]-L-Fc (Fc fusion)” was tested, and the Kv1.3 IC50 by IWQ (nM), IonWorks planar patch clamp, CHO/Kv1.3 cells [4] was 4.9 nM.

RSCIDTIPKSRCTAFQCKHSMKYRLSFCRKTCGTC (not fully specified; ends and bridges not checked) [20K PEG-ShK[1-35]] was tested, and the peak IC50 of block of the outward potassium current, whole cell patch clamp [5] was 0.169 nM.

Molecule SCIDTIPKSRCTAFQCKHSMKYRLSFCRKTCGTC (not fully specified; ends and bridges not checked) [synthetic ShK[2-35]] has an IC50 of block of the outward potassium current, whole cell patch clamp [5] of 49 pM.
